The record followed here is EP4499701A1 (dated 2025).

This assay has as its target T1, human FGFR2b expressed on cells (human, UniProt P21802-3 22-822).
T1 construct: whole, on cells; Used for the CHOK1 transfectants (FACS), the Ba/F3 cells with full-length human FGFR2b (ADCC) and the receptor on SNU-16 cells (signalling, proliferation); also called hFGFR2b-expressing CHOK1 cells; CHOK1-FGFR2IIIb transfectants
Briefly: flow cytometry on CHOK1 cells expressing hFGFR2b. (In general: A flow cytometer gives signals particle by particle.)

T1 sequence (P21802 other isoform, or with tags, fused parts or gaps): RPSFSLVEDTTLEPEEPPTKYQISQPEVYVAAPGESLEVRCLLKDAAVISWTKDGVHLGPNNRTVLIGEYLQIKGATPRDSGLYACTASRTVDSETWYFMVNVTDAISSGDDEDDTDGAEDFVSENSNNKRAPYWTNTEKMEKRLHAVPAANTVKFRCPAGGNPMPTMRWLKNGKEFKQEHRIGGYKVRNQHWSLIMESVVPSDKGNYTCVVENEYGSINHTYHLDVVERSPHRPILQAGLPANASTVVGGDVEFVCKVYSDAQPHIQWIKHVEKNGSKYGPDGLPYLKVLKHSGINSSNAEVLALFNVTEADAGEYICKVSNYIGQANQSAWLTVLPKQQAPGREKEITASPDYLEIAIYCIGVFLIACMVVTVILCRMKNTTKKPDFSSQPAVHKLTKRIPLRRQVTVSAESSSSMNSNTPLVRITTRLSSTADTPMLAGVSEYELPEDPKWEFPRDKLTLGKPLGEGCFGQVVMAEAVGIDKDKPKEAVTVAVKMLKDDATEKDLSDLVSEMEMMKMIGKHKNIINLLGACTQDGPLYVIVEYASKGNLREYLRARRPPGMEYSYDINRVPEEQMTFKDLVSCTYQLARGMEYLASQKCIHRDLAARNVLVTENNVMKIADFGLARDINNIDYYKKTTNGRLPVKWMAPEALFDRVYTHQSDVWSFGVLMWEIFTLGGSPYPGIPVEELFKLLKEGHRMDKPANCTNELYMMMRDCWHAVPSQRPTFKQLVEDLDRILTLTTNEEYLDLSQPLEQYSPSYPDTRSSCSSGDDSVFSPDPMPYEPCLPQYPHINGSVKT

B1: HC18 (antibody, human IgG1, kappa, V domains shown)
VH: EVQLQQSGTVLARPGASVKMSCKTSGYTFTSYWMHWVKQRPGQGLEWIGSIYPENSDTSYNQKFKGKAKLTAVTSASTAYMDLSSLTNEDSAVYYCSIYHGYDGDYWGQGTTLTVSS
VL: QIVLTQSPAIMSASPGEKVTITCSASSSVSYMYWFQQKPGTSPKLWIYSTSNLASGVPARFSGSGSGTSYSLTISRMEAEDAATYYCQQRSSYPYTFGGGTKLEIKR
notes: also called mAb HC18; the antibody of the present disclosure
Consider B1, for which the binding result was “binds”.
